Reference: the domain aggregation screens of Martell et al. (2025)

assay: soluble fraction after stress (log2 fold change); higher = more stays soluble; pooled small domains, quantitative proteomics; conditions: stress: 50 degC
Summary of the method: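 Quantitative proteomics served as the high-throughput read-out for pooled custom libraries of small protein domains. Each was stressed at 50°C. Aggregation propensity is expressed as the base-two log fold change in soluble protein after stress. A higher value means a larger share of the protein remains in solution.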

Going from “HMGGGTPEERLATLAAIAERQEMLLERLGPNNPLVSLGQYSRTLSRMVQLAGFKDASQYFNELPLDFQMPE” to “HMEVFTPSEANVAEAREILAAMATAKANGEGATVYKGRLVDIASIKQAEVIVRQSEMIQSAH”, the “soluble fraction (log2)” value rises from -0.212 to 0.408.

First: HMQITAPVQKIDGVEYYMHKVEQGQTLYSISKLYNVGVKEIQKANQLGTEGIQLGQVLKVRKGG
Second: HMNELTDKQILLFSNKLAHNIPFSSKYSKPGESYEEFAERLANELIDPQKVKLYKPYLEEVGFK
The “soluble fraction (log2)” value of the first is lower: -0.0136 for the first, 0.302 for the second.

Compared with “HMEAYDTMEDRTTLAPGFAKLDKRERYILHLRFFEGLTQSQIAERVGISQMHVSRLIRRSLEKLREEIGD”, “HMKEQIKVPDLSNKTPEEAKKELNTLGLGARKGGEESSDTVEEGLITRQEPAAGEQVDKNTQILFYVSTGK” is higher in “soluble fraction (log2)” value: -0.671 for the first, 0.0624 for the second.

“HMDINLSENLVRLRHAKKLTQEQLADFLGVTKASVSKWETRQSLPDILLLPRLAAFYGVTVDELIGYEP” and “HMEVTLGLGSMVRLLGEPYLGSTGRVVELPDQAERFASGLTAKVAVVERHDGELIRVPVTNLLLME” are within 0.2 log units of each other in “soluble fraction (log2)” value: -0.253 for the first, -0.191 for the second.

Compared with “HMVKNYYEILEVDKKASPEVIEKAYKTLAKKYHPDLQEAENNGQYEEKMKEINEAYSVLSDEFKRRTYDEQ”, “HMSSIYVYPNPTANRIYIQADNIKKAELFDLMGRKVRSTNQPQIDISRLSRGNYILQVKTQNNTQSFKIIK” is lower in “soluble fraction (log2)” value: 0.114 for the first, -0.476 for the second.

Going from “HMVSPEVEMLRAAVETMSERQKQVYELHYLRGFNVKETAAILGMSSPTVTAHKKRIMEIIKKFFE” to “HMAHPRTHEALNPLWEKYLGPNAGNDFFLSGGTSLKALMFLKDLEKTLNKRIAIHAFFKDPTYEHVVSD”, the “soluble fraction (log2)” value rises from -1.22 to -0.683.

Going from “HMSELSGSQLKAIREEKHIPLEQVASATRIRLSLLEALEMDEYAELGSRTQARGFLKLYADFLGVPFEA” to “HMQPQIDFEIDVEVRASSLRIVAAPNSDVLVATVGRGEHVVQLTYPKDGWVMIRTADDRVGFVPESLLL”, the “soluble fraction (log2)” value falls from 0.0345 to -0.255.

Compared with “HMLSTRERMSSLMAQLQVQQFMPFHRLFTISEGRMGVIVTFLAMMELVKENLIKLIQAQEYGPIHVSLG”, “HMARVSGIDLPKNKRGYIGLTYIYGIGRSTALHILNSAGVDPEKKVHEWNDDETTAIRNIINAEIKVEGAL” is lower in “soluble fraction (log2)” value: 0.0428 for the first, -0.645 for the second.

Compared with “HMSTMKSKWFVSSNPIAGVMKYQAQRKKDVNAVDSSENREASGQWYTDKEEAQAIVDKLNAEEQIKEAGK”, “HMEFQVKVIVSSLNIRSGPGTSYDTLGTVTKGDIFTIVETNSDSTWGKMQSGGWISIKDAYVKK” is lower in “soluble fraction (log2)” value: 0.159 for the first, -0.688 for the second.

First: HMKNIFDWLKQINYHKQPADSFTEKDWELFNSYMVHRFMSMNREFIEVVNYVQEMPPQEKILIYNIYREF
Second: HMDEEVLVVQEGGERLDVFVAANAEGITRSFVQNLIKKGDVTVDGAPRKANYRLRSGQVVRFSLPEP
The “soluble fraction (log2)” value of the first is lower: -1.02 for the first, -0.328 for the second.

Compared with “HMLPDHAPITMRQLAMLHVAKNKLDLTDEDYRSLLLLYGGVESSKQLNQEGLRRVLDRFKELGFEP”, “HMPVGSIGERLKALRLKAGLTQEEVGQHVHISKQTLYKYENGIVTNIPADKIELLATIYSVTPAYIMGWA” is lower in “soluble fraction (log2)” value: -0.0947 for the first, -0.875 for the second.

First: HMTGSALDATIEKLLDLGSKAGSVTEDEIQIVLKNVDVTDAQLSSIYQFLRDRGVEIVSATEDDD
Second: HMSRELVILGNSMLNNALKAFHVSPASIKKKHWDKLILDYHLESKNNILIDIALGKRINVMVAHQLTSIID
The “soluble fraction (log2)” value of the first is lower: 0.0977 for the first, 0.56 for the second.

First: HMKYGPSTVAVLTVVRESEMGAFLDAETGRTNDDILLHKTQQTEPVHIGDQVKVFLYLDPKHRLTASMRVP
Second: HMSEPHPPFQVVAQFPYKSEYEDDLNFEKDQIITVTSIEDDEWYYGDFKNKGGELVEGIFPKSFVTVK
The “soluble fraction (log2)” value of the first is lower: -1.16 for the first, -0.403 for the second.

First: HMSLAATLSPREIDTVRLIAVGSSNKEIARQLGIAETTVKIHVQHILRKLNLTSRVQVAVFANAEGII
Second: HMRLLGEPLAGRLKKDVPVVTGRSTESKAIAQFFELRWSHLPDPEARTISVASGRIDFMDVGATRFSLR
The “soluble fraction (log2)” value of the first is lower: -0.801 for the first, 0.054 for the second.

Going from “HMGENTIFSGVLGEGRLDSALAHALPQFSRARIQGLIAEDAVLIAGKATNDAASKKFAGQSFELSVPAPRP” to “HMDEDLQEALRKLNPIQANERKLLLKMLEQHRWNVSSVAKAFDVSRNTLYRRLHKLHIPLSNPSE”, the “soluble fraction (log2)” value falls from 0.105 to -0.417.

First: HMSATPQRMTIIDALDSSGKNLSAYELLDLLNDKGQLFNISTIYRVLDFWIEMGIVHKINSSNTYL
Second: HMSLTEESAKSLIGLTENEAVKVAAERGWTVRVAMRDGEAFMLTQDYSENRVNLTVMKTLVTAVTI
The “soluble fraction (log2)” value of the first is higher: 0.125 for the first, -0.273 for the second.

First: HMSQITEADYIPNTDKTWGELMEETGESLPNLVERYNNEMTKSNGKEQPQSIIQRIIEDYQMVS
Second: HMHGSSSTVPPVKGLSFEQARLTLAENDLTVEISDSIYDRNARPGTVVESWPRAGSVVKQGRQVYVTVTAF
The “soluble fraction (log2)” value of the first is higher: 0.0384 for the first, -0.922 for the second.

“HMFDMLGDQIKKYRKEKKMSQEELAIPLNVVRQTVSKWENNLSVPDAELLIRLAEVLEISVAELLGT” and “HMSKQEFVDRLRVSLSGKISPASVEDNARYYEDYINTHIRLGEPEEDVLEGLGDPRLIARSIVAAESV” are within 0.2 log units of each other in “soluble fraction (log2)” value: -0.108 for the first, 0.0896 for the second.

Going from “HMSLEDYVIIKNKTVKVYETEFDGAPVVTSSSVGQKLILVEYNDNFAKILYRAKDGLDYVGYIKRKDVYVR” to “HMGAAFITSSKDNAINIRQSANTDSKVIETVTNGQILESNEKSGEWHKVTYYDNDIKKSFTGYVHEGQLK”, the “soluble fraction (log2)” value rises from -2.4 to 0.125.
